T1: recombinant TIP1 protein (tax interacting protein 1) (Homo sapiens (Human), UniProt O14907 2-124, limits assumed)
T1 construct: Purified recombinant TIP1 used as coat or analyte in ELISA, Western blot and Biacore
T1 sequence: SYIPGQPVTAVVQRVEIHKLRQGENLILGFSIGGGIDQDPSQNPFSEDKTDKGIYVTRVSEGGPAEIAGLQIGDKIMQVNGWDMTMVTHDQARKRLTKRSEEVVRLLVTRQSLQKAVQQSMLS

T2: TIP1 in or on human tumor cell lines (A549, H460, H23, U251) (human, UniProt O14907 2-124)
T2 construct: Endogenous TIP1 of tumor cell lines, not transfected cells; also called cell surface TIP1
T2 sequence: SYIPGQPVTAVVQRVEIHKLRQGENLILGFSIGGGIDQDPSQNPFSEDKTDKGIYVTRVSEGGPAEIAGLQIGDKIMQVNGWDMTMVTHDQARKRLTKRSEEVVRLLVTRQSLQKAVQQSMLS


Assays:
[1] = target: T1, recombinant TIP1 protein (tax …); experiment: indirect ELISA, hybridoma supernatant dilutions on coated recombinant TIP1, anti-mouse HRP, TMB
Experimental: Indirect ELISA was performed using standard procedures. Briefly, 10 ug purified recombinant TIP1 protein was coated overnight in 96-well ELISA plates. Next day, wells were blocked with 3% milk and left overnight in the refrigerator. Following day, various 2-fold dilutions of the hybridoma supernatants were prepared in 3% milk and added to the wells in duplicate. The plates were then washed with PBS-0.1% Tween 20 buffer and incubated with anti-mouse HRP conjugated antibodies. Following washing with PBST, plates were developed with TMB substrate and absorbance read in a plate reader at 450 nm.

[2] = target: T2, TIP1 in or on human tumor cell lines …; experiment: flow cytometry, hybridoma supernatant on A549, H460 and H23 cells, Alexa Fluor 488 anti-mouse antibody
Experimental: A549, H460 and H23 cells were incubated with the hybridoma supernatants on ice for 1 h. […] Following washing with FACS buffer, cells were acquired in the MACSQuant Analyzer flow cytometer.

| binding result [1] | binding result [2] | Binder |
| --- | --- | --- |
| binds |  | 4B12 mouse monoclonal anti-TIP1 antibody (antibody, V domains shown, also called 4612) VH: QFQLQQSGAELARPGASVKLSCKASGYTFTSYGISWVKQRTGQGLEWIGEIYFRSGNIYYNEKFKGKATLTADKSSSTAYMELRSLTSEDSAVYFCARSKTFYSNYGGVFDYWGQGTTLTVSS VL: DVLVTQTPLSLPVSLGDQASISCRSSRSIVHNNGNTYLEWYLQKPGQSPKLLIYKVSNRFSGVPDRFSGSGSGTDFTLKISRVEAEDLGVYYCFQGSHVPPTFGGGTRLEIK |
|  | binds | 2F10 mouse monoclonal anti-TIP1 antibody (antibody, V domains shown, Mouse monoclonal from hybridoma, tested as supernatant or purified) VH: QVQLQQSGAELARPGASVKLSCKASGYTFTSSGISWVIQKTGQGLEWIGEIYPRSGNTYYNEKFKAKAALTADKSSSTAHMELRSLTSEDSAVYFCARSKTYYSKYGGFFDYWGQGTPLTVSS VL: DVLMTQTPLSLPVSLGDQASISCRSSQSIVHGNGNTYLEWYLQKPGQSPKLLIHKVSNRFSGVPDRFSGSGSGTDFTLKISRVEAEDLGVYYCFQGSHVPPTFGGGTKLEIK |
|  | binds | 7H5 mouse monoclonal anti-TIP1 antibody (antibody, V domains shown, Mouse monoclonal from hybridoma) VH: QAQLQQSGAELARPGASVRLSCKASGYILTSSGISWVKQRTGQGLEWIGEIYPRSGNTYYNEKFKGKATLTADKSSSIAYMDLRTLTSEDSAVYFCARSKTFYSKYGGVFDYWGQGTTLTVSS VL: DVLMTQTPLSLPVSLGDQASISCRSSQNIVHNNGNTYLDWYLQKPGQSPKLLIYKVSNRFSGVPDRFSGSGSGADFTLKISRVEAEDLGVYYCFQGSHVPPTFGGGTKLEIK |
|  | binds | 3D6 mouse monoclonal anti-TIP1 antibody (antibody, V domains shown, Mouse monoclonal from hybridoma) VH: QVQLHQSGAELARPGAAVKLTCKASGYTLTNSGISWVKQRSGQGLEWIGEIYPGSGNIYYNEKFKVKATLTADKSSSTTYMELRSLTSEDSAVYFCARSRTYYSKYGGLFDYWGQGATLTVSS VL: DVLMTQTPLSLPVRLGDQASISCRSSQSLLHNNGNTYLEWYLQKPGQSPKLLIYKVSSRFSGVPDRFSGSGSGTDFTLKISRVEAKDLGVYYCFQGSHIPPTFGGGTKLEIK |

Reference: patent US20200239590A1 (WASHINGTON UNIVERSITY, published 2020)
